B1: Fibulin-5 (Homo sapiens), Q9UBX5 (parent)
chain: MPGIKRILTVTILALCLPSPGNAQAQCTNGFDLDRQSGQCLDIDECRTIPEACRGDMMCVNQNGGYLCIPRTNPVYRGPYSNPYSTPYSGPYPAAAPPLSAPNYPTISRPLICRFGYQMDESNQCVDVDECATDSHQCNPTQICINTEGGYTCSCTDGYWLLEGQCLDIDECRYGYCQQLCANVPGSYSCTCNPGFTLNEDGRSCQDVNECATENPCVQTCVNTYGSFICRCDPGYELEEDGVHCSDMDECSFSEFLCQHECVNQPGTYFCSCPPGYILLDDNRSCQDINECEHRNHTCNLQQTCYNLQGGFKCIDPIRCEEPYLRISDNRCMCPAENPGCRDQPFTILYRDMDVVSGRSVPADIFQMQATTRYPGAYYIFQIKSGNEGREFYMRQTGPISATLVMTRPIKGPREIQLDLEMITVNTVINFRGSSVIRLRIYVSQYPF

Variants of: B1
Conditions: with eln_human ELN

| Variant | effect of a mutation on the interaction |
| --- | --- |
| C217R | decreasing interaction |
| S227P | decreasing interaction |

Reference: IntAct's records for PubMed 19570982
